The nanobody polyreactivity screen of Harvey et al. (2022)

Assay: yeast display, Sf9 membrane polyspecificity reagent, FACS + sequencing; frameworks hold sequencing errors
In short: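 After 36–48 hours of galactose induction, yeast (Saccharomyces cerevisiae BJ5465) displaying a synthetic nanobody library were stained at 4 °C for 1 hour with 10% biotinylated, detergent-solubilized Sf9 membrane reagent. Streptavidin microbeads enriched the stained cells before FACS sorting into low and high (top ~1%) gates on anti-HA and streptavidin fluorescence. Each clone's polyreactivity label reflects its gate of origin.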

| Sequence | polyreactivity (PSR sort gate) |
| --- | --- |
| QVQLVDSGGGLVQAGGSLRLSCAASGSTIVYYAKGWYRHAPGKERELVAVISDDGGTYYADSVKGRFTISRDNAKNTVYFQMNSLKPEDTAFYYCAKDYYGGAYYWYNDRSGDYWGQGTQVTVSS | low polyreactivity |
| QVQLVDSGGGLVQAGGSLRLSCAASGSTLVYKDMGLYRQAPGKEREFVAAIRSNDGSTYYADSVKGRFTISRDNAKNTVYLQMNSLKPEDTAVYYCAKGRYAYSIWDDYWGQGTQVTVSS | low polyreactivity |
| QVQLVDSGGGLVQAGGSLRLSCAASGSTSQKNAMGWYRQAPGKERELVAAISSGGSTYYADSVKGRFTISRDNAKNNVYLQLNSLKPEDTAVYNCAAKDLRGLGYWGQGTQVTVSS | high polyreactivity |
| QVQLVDSGGGLVQAGGSLRLSCAASGYIDGTYAMGWYRQAPRKERDLVASISSSGGSTYYADSVNGRFTISRDNAKNTVYLQMNSLKPEDTAVYYCNAERKIIAYLWWYDYWGQGTQVTVSA | low polyreactivity |
| QVQLVDSGGGLVQAGGSLRLSCAASRNAMGWYRQAPGKERELVGAISFRGGSTYYADSVKGRFTISRDNAKNTVYLQMNSLKPEDTAVYYCAKVQHHDYEGRGFPDAADGYWGQGTQVTVSS | low polyreactivity |
| QVQLVDSGGGLVQAGGSLRLSCAASVRIFYEYAMGWYRKAPGKERQFVASISRTDGGTYYADSVKGRFTISRDNAKNTVYLQMNSLKPEENAVYYCATRAYYNTEVYYWGQGTQVTVSS | high polyreactivity |
| QVQLVDSGGGLVQAGGSLRLSCAAYGSTFGPYAMGWYRQAPGKERELVAAIRVSGGSTYYADSVKGRFTISRDNAKNTVYLQMNSLKPEDTAVYYCIRDVMTFNYDYWGQGTQVTVSS | low polyreactivity |
| QVQLVDSGGGLVQAGGSLRLSCDASGSTFLYYAMGWYRQAPGKERELVARITSRFGRTYYADSVKGRFTISRDNAKNTVYLQMNSLKPEDTAVYYCAAYPDYSYYYWGHGTQVTVSS | high polyreactivity |
| QVQLVDSGGGLVQAGGSLRLSCDATGRIFRLYAMGWYRQAPGKERELVAAISWRGSSTNYADSVKGRFTISRDNAKNTVYLQRNSLKPEDTAVYYCAAPGRGGYYYWGQGTQVTVSS | high polyreactivity |
| QVQLVDSGGGLVQAGGSLRLSCPASGRIFGRNAMAWYRQAPGKERELVAAISSSGGTYYADSVKGRFTISRDNAKNTVYLQMNSLKPEDTAVYYCAADPLYYWWRGDYWGQGTQVTVSS | high polyreactivity |
| QVQLVDSGGGLVQAGGSLRLSCSASGFTFKYYAMGWYRQAPGKERELVASINWSGGRTSYADSVKGRFTISRDNAKNTVYLQMNSQKPEDTAVYYCARTPAGRGEYWGQGTQVTVSS | low polyreactivity |
| QVQLVDSGGGLVQAGGSLRLSFAASGITFFYYAMGWYRQAPGKERELVAAISTSGGRTYYADSVKGRFTISRDNAKNTVYLQMNSLKPEDTAVYYSAAQSGWLRYYYWGQGTQVTVSS | high polyreactivity |
| QVQLVDSGGGLVQAGGSLRLSSAASGRTFDYYAMGWYRQAPGKERELVAAITKDGGSTYYADSVKGRFTISRDNAKNTVFLQMNSLKPEDTAVYYCAADGPPLYYDPIHYDYWGQGTQVTVSS | low polyreactivity |
| QVQLVDSGGGLVQAGGSLRLSWAASGITFYTYTMGWYRQAPGKERELVAAISRRGGGTYYADSVKGRFTISRDNGKNTVYFQMNILKTEVTAVYYCAKDWYGRYYYWGQGTEVTVSS | high polyreactivity |
| QVQLVDSGGGLVQAGGSLRLTCAACGSIFVNNSMGWSRQATGKQRELVAAISSRSSRTFYADSVKGRFTISRDNEKNTVFLQMNSLKPEDNAVYYCAVKKRAPDGDYWGLGTQVTVSS | high polyreactivity |
| QVQLVDSGGGLVQAGGSLRLTCAASGSTIYWYAMGWYRQAPGKERELVAAISSSGSTKYADSVKGRFTISRDNAKNNVYLQINSLKPEDTAVYYCAADVEYDRDVPQQVYVSDDYWGQGTKVTVSS | low polyreactivity |
| QVQLVDSGGGLVQAGGSLSLSCAASGRTFNWYTMGWYRQAPGKEMELVARINGRGGSTYYADSVKGRFTISRDNAKNTVYLQMNSLKPEDTAVYYCNKPHRWPQAGYGYWGQGTQVTVSS | high polyreactivity |
| QVQLVDSGGGLVQAGGSLSLSCAASGSIFNVYGMGWYRQAPGKERELVARINSRGGITYYADSVKGRFTISRDNAKNTVYLQMNSLKPEDTAVYYCATDTQDLQGYSWFDYWGQGTQVTVSS | high polyreactivity |
| QVQLVDSGGGLVQAGGSLSLSCAASGSTFTDYDMGWYRQAPGKERELVAAITSGGSTNYADSVKGRFTISRDNAKKTVYLQMNSLNPEATAVYYCAAADADRKYDYWGQGTQVTVSS | low polyreactivity |
| QVQLVDSGGGLVQAGGSLSLSCAASGSTYAYYAMGWYRQAPGKVRELVAGITWTGGSTYYADSVKGRFTISRDNAKNTVYLQMNSLKPEDTAVYYCAVTYPYGYEYDHWGQGTQVTVSS | low polyreactivity |
| QVQLVDSGGGLVQAGGSLSLSCAASGYTMGYYTMGWYIEAPGKERELVATISRRGGSTSYADSVKGRFTISRDNAKNTVYLQMNSLKPEDTAVYYCNAQTSGRVGSQYYSYDGSWGQCTQVTVSS | high polyreactivity |
| QVQLVDSGGGLVQAGGSLSLSCGASGIIFVSNAMGWYRQAPGKERELVATINWSDDSTYYADSVKGRFTISRDNAKNTVYLQMNSLKPEDTAVYYCYWRQGTQVTVSS | low polyreactivity |

| Sequence | polyreactivity (PSR sort gate) |
| --- | --- |
| QVQLVDSGGGLVQAGGTHRLSCAASGFTFRRNAMGWYRQAPGKERELVAAITYNGGTSYYADSVKGRFSISRDNAKNTVYLQMNSLKPEETAVYYCAAVDSYSPYVSHDNWGQGTKVTVSS | low polyreactivity |
| QVQLVDSGGGLVQPGGSLRLRCAASGGIFLQNAMGWYRQAPGTERELVAAISWSAGSTYYADSVKGRFTISRDNAKNTVYLDMNCLKPEDTAVYYCAAAGSNFTVWYGYYYWGQGTQVTVSS | low polyreactivity |
| QVQLVDSGGGSVQAGGSLRLSCAASGRTFPYYAMGWYRQAPGKERELVAAITIGNTNYADSVKGRFTISRDNAKNTVYLQMNSLKPEDTAVYYCNASHVSHYRARDYWGQGTQVTVSS | low polyreactivity |
| QVQLVDSGGRLLQAGGSLRLSCAASGRTFYYYAKGWYRQAPGKERELVASITSDGDTNYADSVKGRFTISGDNAKNTGYLQMNSLKPEDTAVYYCAAEWQTQGYEYWGQGTQVTVSS | high polyreactivity |
| QVQLVDSGVGLVQAGGSLRLSCAASGRIFDYYAMGWYRQAPGKERELVAAITSGGTTTYYADSVKGRFTISRDNAKNTVYLQMNSLKPEDTAVYYCAASFFGDGYIDLWYKFDYWGQGTQVTVSS | low polyreactivity |
| QVQLVDSVGGLVQAGGSLRLSCAASGFTFWYYAMGWYRQAPGKERELVAAISSGGSTYYADSVKGRFTISRDNAKNTVYLQMNSLKPEDTAVYYCAARIGARGRGGKDRVYYWGQGTQVTVSS | high polyreactivity |
| QVQLVDSVGRLVQAGGSLRLSCAASGSTFVGYAMGWYRHAPGKEREMDADIDSIGGSTYYADSVKGRFTISRDNAKNTVYLQMNILKPEDTAVYYCAARRYDTALVLYDYWGQGTQVTVSS | low polyreactivity |
| QVQLVDSVGVLVQAGGSLRLSCAASGSIFYRNVMGWYRPAPGKERELVATISRGGTTNYADSVKGRFTISRDNAKNTVYLQMNSLKPEDTAVFYCAAPIGDVYVGIGYDSWGQGTQVTVSS | low polyreactivity |
| QVQLVDTGGGLVQAGGSLRLSCAASGLTFQQYAMGWYRQAPRKERELVAAITSDGASTNYADSVKGRFTNSRDNAKNTVYLQMNSLKPEDCAVYYCAAGRRSRQYRYVYWGQGTQVTVSS | high polyreactivity |
| QVQLVEAGGGLVLAGGSLRLSCAASGIIFVSYAMGWSRQAPGKERELVASISWSGGRTYYADSVKARFTISRDNAKNTVYLQMNSLKPEDTAVYFCAAAYRTRSGVRRYPWFNYWGQGTQVTVSS | high polyreactivity |
| QVQLVEAGGGLVQAGGSLRLSCAASGITFGDNAMGCYRQAPGKERELVAAITLSDVDTYADSVKGRFTISRDNAKNTVYLQMNSMKPEDTAVYYCAADYDFFSLYLYDYCGQGTQVTVSS | low polyreactivity |
| QVQLVEAGGGLVQAGGSLRLSCAASGNTLYGNAMGWYLQAPGKERELVAAISWSGGSTSYADSVKGRFTISRDNAENTVYLQMNSLKPEDTAVYYCATQGFYKDYSRYDYWGQGTQVTVSS | low polyreactivity |
| QVQLVEAGGGLVQAGGSLRLSCAASGRTFRYYAMRWYRQATGKERELVAAITTGSSTYYADSVKGRFTISRDNAKNTVYLQMNSLKPEDTAVYYCAADHLYWGLEYESWGQGTQVTVSS | low polyreactivity |
| QVQLVEAGGGLVQAGGSLRLSCAPSGFICYYYGMGWYRQAPGKDREVVASIRSGGSTNYADSVKGRFTISRDNAKNTGYLQMNWLKPEDTAVYNCAASLLNRISNYDYWGQGTQVTVKS | high polyreactivity |
| QVQLVEAGGGLVQAGGSLRLSCATSGGIFPPNAMGWYRQAPGKERELVASISSDGSTNYADSVKGRFTISRDNAKNTFYLQMISLKPEDTAVYFCAADSTTTWARLHVRRYYYWGQGTQVTVSS | low polyreactivity |
| QVQLVEAGGGLVQAGVSLRLSCAASGSIFGYNAMGWYRQAPGKERELVAAISRRGTRTYYADSVKGRFTISRDTAKNTVYLQMNSLKPEDTAVYYCNASPSLDYDYWGQGTQVTVSS | high polyreactivity |
| QVQLVEAGLGLVQAGGSLRLSCAASGFIFVANAMVWYRQAPGKERELVAAISFSSTSTRYADSVKGRFTISRDNAKNTVYLQMNSLKPEDTAVYYCAVDLTFSEFDYWGQGTQVTVSS | low polyreactivity |
| QVQLVEAGVGLVQAVGSLRLSCAASGYIFVVNAMGWYRQAPGKERELVASITWSGDNTYYADSVKGRFTISRDNAKNTVYLQMNSLKPEDTAVYYCAATIWIAYRGWYSDYNYWGQGTQVTVSS | low polyreactivity |
| QVQLVEKGGGLVQAGGSLRLSCAPSGGLFSKNAMGCYRQAPGKVRELVAGISSGGTTYYADSVKGRFTISRDNAKNTGYLQMNSLKPEDSAVYYCAVPYYRRLGPLNDSWGQGTQVTVSS | low polyreactivity |
| QVQLVEPGGGLVHAGGSLRLSCAASGRIYYVYAMGWYRQAPGKERELVAGIRSGGSTNYADSVKGRFTISRDNAKNTVYLQMNSLNPEDTAVYYCAVQSYGALSPQLVYRRYDYWGQGTQVTVSS | high polyreactivity |
| QVQLVESAAGLVQAGASLRLSCAPSGRIYRYYAMGWYRQAPGKDRELVAAISSSGGSTYYADSVKGRFSISRDNAKNTVYLQKNSLKPEDTAVYYCAARKASGRFGYWGQGTQVTVSS | high polyreactivity |
